# Measured values as given in the supplement of paper PMC9112550, “Optimization of the antimicrobial peptide Bac7 by deep mutational scanning” (BMC Biology, 2022).
# System: Escherichia coli TOP10
# Test: shrunken log2 fold change of peptide-encoding DNA abundance (4.5 h post-induction vs induction); higher = less antimicrobial activity (less host growth inhibition)
# Settings: time post-induction: 4.5 h; library: site-saturation at positions 5, 18, 19, 20
# 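Also: peptides expressed intracellularly from a pBAD plasmid library in pooled LB shake-flask culture, induced with 0.3% L-arabinose, DNA abundance read by NGS, three biological replicates, DESeq2 with apeglm shrinkage.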
row,Sequence,shrunken log2 fold change
1,RRIRARPPRLPRPRPRPKGLPRP,0.433
2,RRIRRRPPRLPRPRPRPKKFPRP,-0.205
3,RRIRERPPRLPRPRPRPQRYPRP,-0.222
4,RRIRFRPPRLPRPRPRPKQSPRP,0.328
5,RRIRVRPPRLPRPRPRPNWGPRP,0.119
6,RRIRSRPPRLPRPRPRPLHAPRP,0.556
7,RRIRRRPPRLPRPRPRPRQFPRP,0.225
8,RRIRFRPPRLPRPRPRPTTRPRP,0.177
9,RRIRDRPPRLPRPRPRPSHTPRP,-0.436
10,RRIRGRPPRLPRPRPRPYWIPRP,-0.311
11,RRIRRRPPRLPRPRPRPWICPRP,-0.0987
12,RRIRIRPPRLPRPRPRPYDWPRP,-0.593
13,RRIRQRPPRLPRPRPRPCHVPRP,-0.167
14,RRIRCRPPRLPRPRPRPKQSPRP,0.107
15,RRIRARPPRLPRPRPRPPWMPRP,0.463
16,RRIRNRPPRLPRPRPRPFNFPRP,0.125
17,RRIRFRPPRLPRPRPRPTWIPRP,-0.222
18,RRIRRRPPRLPRPRPRPRTFPRP,0.338
19,RRIRMRPPRLPRPRPRPFIKPRP,-0.432
20,RRIRHRPPRLPRPRPRPQKWPRP,-0.875
21,RRIRNRPPRLPRPRPRPWRFPRP,-0.0929
22,RRIRTRPPRLPRPRPRPTVLPRP,-0.0554
23,RRIRTRPPRLPRPRPRPTLKPRP,0.00476
24,RRIRQRPPRLPRPRPRPMCEPRP,-0.00149
25,RRIRVRPPRLPRPRPRPHGWPRP,0.492

row,Sequence,shrunken log2 fold change
1,RRIRNRPPRLPRPRPRPTFHPRP,-0.422
2,RRIRNRPPRLPRPRPRPKLPPRP,0.0992
3,RRIRKRPPRLPRPRPRPTYAPRP,0.431
4,RRIRQRPPRLPRPRPRPDPDPRP,-0.00136
5,RRIRLRPPRLPRPRPRPVEMPRP,-0.0829
6,RRIRERPPRLPRPRPRPTCYPRP,-0.673
7,RRIRHRPPRLPRPRPRPARGPRP,0.319
8,RRIRNRPPRLPRPRPRPLPEPRP,-0.00875
9,RRIRTRPPRLPRPRPRPASGPRP,0.614
10,RRIRKRPPRLPRPRPRPNGLPRP,-0.0579
11,RRIRYRPPRLPRPRPRPDLAPRP,-0.344
12,RRIRCRPPRLPRPRPRPRQTPRP,0.781
13,RRIRERPPRLPRPRPRPKSSPRP,-0.0505
14,RRIRYRPPRLPRPRPRPVMLPRP,-0.256
15,RRIRFRPPRLPRPRPRPMRFPRP,-0.0257
16,RRIRSRPPRLPRPRPRPWTVPRP,-0.0297
17,RRIRNRPPRLPRPRPRPTVIPRP,0.0591
18,RRIRNRPPRLPRPRPRPSWDPRP,0.039
19,RRIRDRPPRLPRPRPRPCGLPRP,0.371
20,RRIRNRPPRLPRPRPRPIENPRP,0.0211
21,RRIRPRPPRLPRPRPRPFCQPRP,-0.257
22,RRIRHRPPRLPRPRPRPIRHPRP,-0.0447
23,RRIRCRPPRLPRPRPRPEIDPRP,0.138
24,RRIRNRPPRLPRPRPRPRYNPRP,-1.04
25,RRIRCRPPRLPRPRPRPEVEPRP,0.254

row,Sequence,shrunken log2 fold change
1,RRIRTRPPRLPRPRPRPQWRPRP,0.207
2,RRIRQRPPRLPRPRPRPVDCPRP,-0.013
3,RRIRLRPPRLPRPRPRPTNTPRP,-0.375
4,RRIRERPPRLPRPRPRPIVKPRP,-0.0406
5,RRIRWRPPRLPRPRPRPMRMPRP,0.329
6,RRIRTRPPRLPRPRPRPILIPRP,-0.485
7,RRIRMRPPRLPRPRPRPHSVPRP,0.0764
8,RRIRKRPPRLPRPRPRPDYAPRP,0.102
9,RRIRQRPPRLPRPRPRPDIWPRP,-0.214
10,RRIRDRPPRLPRPRPRPIGKPRP,-0.153
11,RRIRRRPPRLPRPRPRPSPEPRP,0.513
12,RRIRARPPRLPRPRPRPMDNPRP,-0.114
13,RRIRQRPPRLPRPRPRPLYWPRP,-0.11
14,RRIRRRPPRLPRPRPRPIERPRP,0.0771
15,RRIRFRPPRLPRPRPRPGNRPRP,1.63
16,RRIRTRPPRLPRPRPRPKMPPRP,0.158
17,RRIRGRPPRLPRPRPRPLAEPRP,2.89
18,RRIRHRPPRLPRPRPRPTEVPRP,-0.0182
19,RRIRGRPPRLPRPRPRPISEPRP,0.0792
20,RRIRHRPPRLPRPRPRPMDDPRP,-0.118
21,RRIRMRPPRLPRPRPRPMCSPRP,-0.00161
22,RRIRARPPRLPRPRPRPEASPRP,1.19
23,RRIRIRPPRLPRPRPRPDCPPRP,0.132
24,RRIRKRPPRLPRPRPRPNRQPRP,1.09
25,RRIRVRPPRLPRPRPRPWHWPRP,-0.0605
